Source: PMC5286394, “Architecture of the yeast Elongator complex” (EMBO Reports, 2016)

T1: untagged full-length Elp1 (S. cerevisiae, UniProt Q06706 1-1349)
T1 construct: Elp1, Elongator subunit 1, S. cerevisiae; source: E. coli BL21 pSarRare, purified (NiNTA, TEV cleavage, second NiNTA, gel filtration); not shown: His6, N-terminal, cleaved; GST, N-terminal, cleaved
T1 sequence (looked up): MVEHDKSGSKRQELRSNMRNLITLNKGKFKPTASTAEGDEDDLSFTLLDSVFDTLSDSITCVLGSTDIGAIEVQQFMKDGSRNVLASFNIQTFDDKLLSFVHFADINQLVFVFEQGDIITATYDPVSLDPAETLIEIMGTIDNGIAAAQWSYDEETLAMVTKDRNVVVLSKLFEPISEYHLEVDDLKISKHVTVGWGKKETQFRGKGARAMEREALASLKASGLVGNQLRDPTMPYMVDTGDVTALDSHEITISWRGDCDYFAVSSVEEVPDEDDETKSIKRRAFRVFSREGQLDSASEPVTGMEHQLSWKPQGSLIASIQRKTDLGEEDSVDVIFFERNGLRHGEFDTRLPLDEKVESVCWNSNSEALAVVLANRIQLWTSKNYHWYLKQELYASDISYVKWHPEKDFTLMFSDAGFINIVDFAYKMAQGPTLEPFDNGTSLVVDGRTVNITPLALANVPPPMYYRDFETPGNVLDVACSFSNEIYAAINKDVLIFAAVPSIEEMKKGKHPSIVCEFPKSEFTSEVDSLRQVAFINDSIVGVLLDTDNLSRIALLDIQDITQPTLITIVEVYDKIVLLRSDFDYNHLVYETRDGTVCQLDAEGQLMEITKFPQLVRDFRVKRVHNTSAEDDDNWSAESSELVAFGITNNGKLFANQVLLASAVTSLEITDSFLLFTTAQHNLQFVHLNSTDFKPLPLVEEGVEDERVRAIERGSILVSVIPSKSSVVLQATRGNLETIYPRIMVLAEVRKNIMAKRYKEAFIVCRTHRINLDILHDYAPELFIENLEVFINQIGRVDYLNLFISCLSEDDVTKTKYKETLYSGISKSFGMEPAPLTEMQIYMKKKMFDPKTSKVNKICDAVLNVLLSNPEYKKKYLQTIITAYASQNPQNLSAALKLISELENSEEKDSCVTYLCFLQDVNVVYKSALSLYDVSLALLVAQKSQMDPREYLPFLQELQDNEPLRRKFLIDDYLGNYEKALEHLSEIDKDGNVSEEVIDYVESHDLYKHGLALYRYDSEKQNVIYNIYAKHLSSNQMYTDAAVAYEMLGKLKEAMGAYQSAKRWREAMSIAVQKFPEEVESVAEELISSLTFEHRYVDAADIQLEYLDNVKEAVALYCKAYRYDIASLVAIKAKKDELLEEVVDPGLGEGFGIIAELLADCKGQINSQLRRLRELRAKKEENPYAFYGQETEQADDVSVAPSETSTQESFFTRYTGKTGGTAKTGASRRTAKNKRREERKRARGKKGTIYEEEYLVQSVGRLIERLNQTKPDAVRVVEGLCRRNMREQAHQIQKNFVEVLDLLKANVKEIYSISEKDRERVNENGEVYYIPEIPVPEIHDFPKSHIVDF


What was measured:
[1] = target: T2, Elp123 sub-complex within the endogenous holoElongator (Elp6-TAP purification) (S. cerevisiae (endogenous in strain …, UniProt Q06706 1-1349; P42935 1-788; Q02908 1-557); test: negative-stain EM reconstruction with integrative modelling (EM map and cross-links); holoElongator from Elp6-TAP purification, 0.01% glutaraldehyde, gel filtration; 1% uranyl acetate; 31 Å; conditions: both partners purified
T2 construct: Elp1, S. cerevisiae, endogenous protein; Elp2, S. cerevisiae, endogenous protein; Elp3, S. cerevisiae, endogenous protein; copies: 2 + 2 + 2

[2] = target: T1, untagged full-length Elp1; test: pull-down; GST pull-down: 20 μg GST-tagged protein and increasing amounts of untagged partner with glutathione Sepharose, 2 h at 4°C, 20 mM Tris pH 7.5, 150 mM NaCl, 5 mM DTT, 0.1% Tween-20; five washes; SDS–PAGE, Coomassie; conditions: both partners purified

T2 sequence (P42935 whole entry, one chain of several): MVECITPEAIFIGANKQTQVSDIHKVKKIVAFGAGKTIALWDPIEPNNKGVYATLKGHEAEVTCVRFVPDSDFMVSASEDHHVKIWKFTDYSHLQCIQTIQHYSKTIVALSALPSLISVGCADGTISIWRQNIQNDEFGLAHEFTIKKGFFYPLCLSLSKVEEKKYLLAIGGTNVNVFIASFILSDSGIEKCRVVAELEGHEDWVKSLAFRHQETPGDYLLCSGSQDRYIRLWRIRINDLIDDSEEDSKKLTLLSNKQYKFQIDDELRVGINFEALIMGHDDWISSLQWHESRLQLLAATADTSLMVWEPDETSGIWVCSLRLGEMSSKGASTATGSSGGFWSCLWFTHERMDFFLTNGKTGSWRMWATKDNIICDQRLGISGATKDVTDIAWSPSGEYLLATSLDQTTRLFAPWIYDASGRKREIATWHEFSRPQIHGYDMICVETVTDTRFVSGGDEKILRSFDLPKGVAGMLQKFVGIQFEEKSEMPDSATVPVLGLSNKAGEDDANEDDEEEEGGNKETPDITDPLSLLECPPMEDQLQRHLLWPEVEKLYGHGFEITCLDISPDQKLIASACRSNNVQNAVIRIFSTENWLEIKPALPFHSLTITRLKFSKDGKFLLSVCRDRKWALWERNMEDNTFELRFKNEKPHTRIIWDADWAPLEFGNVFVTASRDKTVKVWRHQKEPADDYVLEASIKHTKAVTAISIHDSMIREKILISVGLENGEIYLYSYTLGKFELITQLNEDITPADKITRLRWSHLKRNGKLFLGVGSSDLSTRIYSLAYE

| stoichiometry N [1] | binding result [2] | Binder |
| --- | --- | --- |
| 1 | – | hetero-hexameric Elp456 ring within the endogenous holoElongator (Elp6-TAP purification) (complex, Elp4, S. cerevisiae, endogenous protein; Elp5, S. cerevisiae, endogenous protein; Elp6, S. cerevisiae, endogenous protein with TAP tag; Only part of the TAP tag is left after TEV elution; copies: 2 + 2 + 2) chain 1: MSFRKRGEILNDRGSGLRGPLLRGPPRTSSTPLRTGNRRAPGNVPLSDTTARLKKLNIADESKTKMGLDSSHVGVRPSPATSQPTTSTGSADLDSILGHMGLPLGNSVLVEEQSTTEFHSILGKLFAAQGIVHNRISDSSADKTRNGDTHVIVLSLNQMFAKELPGIYKGSRKQMKKNLISEEESKVTVQNLNETQRSTPSRYKDLKIAWKYKLADEKRLGSPDRDDIQQNSEYKDYNHQFDITTRLMPAPIASELTFIAPTQPVSTILSQIEQTIKRNDKKLIRIVIPSLLHPAMYPPKMFESSEIIGLMHGVRSLVKKYYERVVLFASISIDIITPPLLVLLRNMFDSVINLEPFNQEMTEFLERVYKSQPGKIQHGLVHILKLPVFTDRGEMRVLKSEWAFKNGRKKFEIEQWGIPVDDAEGSAASEQSHSHSHSDEISHNIPAKKTKISLDY chain 2: MASSSHNPVILLKRILSLTESSPFILCLDSIAQTSYKLIQEFVHQSKSKGNEYPIVYISFETVNKPSYCTQFIDATQMDFVHLVKQIISYLPAATATQAKKHMVIIDSLNYISTEYITRFLSEIASPHCTMVATYHKDIKDENRTVIPDWNNNYPDKLTLLQFMATTIVDIDVVLTGTLDTEEVSELLNEFRIPRGLNNDIFQLRLVNKRKSGRSLEYDFIVNSNTHEYELLSTTKQEEESSSNGLETPEMLQGLTTFNLGTSNKQKLAKDQVALPFLEAQSFGQGGAIVYEYEKDDDYDEEDPYEDPF chain 3: MGSVQRQDLVLFSDQSVLPAHFFQDSNSHNLFFITHQSCTQPLWMINALVETHVLGSPSSLNESSSSMLPSSTRSHAVLASFIHEQNYFTNSLNKLKIPSNNYNVLDFLSDFIVNNIHNKPRDKILSDVLAKFSAAIQNNPTDTIVIIEQPELLLSLVSGLTCSELNNKFITPLLRQCKVLIIVSNSDIFNIDEYDASVHSSNLQNFYKSSFIKSMINLNLNPLKTGFAKDVTGSLHVCRGGAPIATSNTSLHVVENEYLYLNEKESTKLFYR |
| – | binds | GST-tagged Elp3 KAT domain (aa348–557) (domain or fragment, S. cerevisiae, UniProt Q02908 348-557, looked up, Elp3, S. cerevisiae, lysine acetyl transferase (KAT) domain, residues 348–557; also called KAT domain of Elp3; source: E. coli BL21 pSarRare, purified (NiNTA, gel filtration); not shown: His6, N-terminal, kept; GST, N-terminal, kept) SYSANALVDLVARILALVPPWTRIYRVQRDIPMPLVTSGVDNGNLRELALARMKDLGTTCRDVRTREVGIQEVHHKVQPDQVELIRRDYYANGGWETFLSYEDPKKDILIGLLRLRKASKKYTYRKEFTSQRTSIVRELHVYGSVVPLHSRDPRKFQHQGFGTLLMEEAERIAKEEHGSEKISVISGVGVRNYYGKLGYELDGPYMSKRI |
